Experimental findings from patent publication US20250304690A1 (HANGZHOU VIROMAB BIOTECH, published 2025) are described below.

Assay [1] deals with T1, CD3 on Jurkat cells and on human T cells (human, UniProt P07766 23-207).
T1 construct: whole, on cells; also called CD3 end; CD3 antigen
In words: flow cytometry on Jurkat cells.
Description: Jurkat cells were plated, washed with a FACS buffer, and centrifuged at 1200 rpm for 3-5 min. Then diluted antibodies with different concentrations were added at 100 L/well. The cells were incubated at 4° C. for 0.5 h, centrifuged at 1200 rpm for 3-5 min, and washed with a FACS buffer. Then a diluted goat anti-human IgG (FITC, Abcam/ab97224) antibody was added. The cells were incubated at 4° C. for 0.5 h, centrifuged at 1200 rpm for 3-5 min, washed with a FACS buffer, and resuspended in 50 μL of a FACs buffer, and assays were performed using a flow cytometer.

Assay [2] concerns the target TT3 labeling polypeptide on cells. Briefly: flow cytometry on HCT116-TT3 cells.

Sequence of TT3 labeling polypeptide on cells (P01732 other isoform, or with tags, fused parts or gaps limits assumed): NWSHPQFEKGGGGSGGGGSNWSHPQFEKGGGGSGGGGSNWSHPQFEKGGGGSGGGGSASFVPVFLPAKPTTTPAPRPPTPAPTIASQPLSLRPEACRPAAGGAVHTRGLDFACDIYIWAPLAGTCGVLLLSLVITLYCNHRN
T1 sequence (P07766 23-207): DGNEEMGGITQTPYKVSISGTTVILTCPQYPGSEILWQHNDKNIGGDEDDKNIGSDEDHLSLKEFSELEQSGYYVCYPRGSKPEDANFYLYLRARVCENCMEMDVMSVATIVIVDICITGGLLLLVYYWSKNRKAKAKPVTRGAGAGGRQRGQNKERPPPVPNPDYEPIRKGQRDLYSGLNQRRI

B1: BK-D-07 (bispecific antibody, human IgG1, kappa)
heavy: QVQLVQSGAEVKKPGASVKVSCKASGYTFTNYYMKWVKQAPGQSLEWIGDLNPNNGDTFYNQKFKGKATLTVDKSASTAYMELNSLRSEDTAVYYCARTGRYEENAMDYWGQGTLVTVSSASTKGPSVFPLAPSSKSTSGGTAALGCLVKDYFPEPVTVSWNSGALTSGVHTFPAVLQSSGLYSLSSVVTVPSSSLGTQTYICNVNHKPSNTKVDKRVEPKSCDKTHTCPPCPAPEFEGGPSVFLFPPKPKDTLMISRTPEVTCVVVDVSHEDPEVKFNWYVDGVEVHNAKTKPREEQYNSTYRVVSVLTVLHQDWLNGKEYKCKVSNKALPASIEKTISKAKGQPREPQVYTLPPSREEMTKNQVSLTCLVKGFYPSDIAVEWESNGQPENNYKTTPPVLDSDGSFFLYSKLTVDKSRWQQGNVFSCSVMHEALHNHYTQKSLSLSPGKGGGGSGGGGSGGGGSQAVVTQEPSLTVSPGGTVTLTCRSSTGAVTTSNYANWVQQKPGQAPRGLIGGTNKRAPWTPARFSGSLLGGKAALTLSGAQPEDEAEYYCALWYSNLWVFGGGTKLTVLGGGGSGGGGSGGGGSEVQLVESGGGLVQPGGSLRLSCAASGFTFNTYAMNWVRQAPGKGLEWVARIRSKYNNYATYYADSVKDRFTISRDDSKNILYLQMNSLKTEDTAMYYCVRHGNFGNSYVSWFAYWGQGTLVTVSA
light: DIVLTQSPASLAVSPGQRATITCRASESVDSYGKSFMHWYQQKPGQPPKLLIYRASNLESGVPARFSGSGSRTDFTLTINPVEANDTANYYCQQNNEDPWTFGQGTKLEIKRTVAAPSVFIFPPSDEQLKSGTASVVCLLNNFYPREAKVQWKVDNALQSGNSQESVTEQDSKDSTYSLSSTLTLSKADYEKHKVYACEVTHQGLSSPVTKSFNRGEC
As for B1, the EC50 was found to be 49.4 nM in assay [1] and 0.127 nM in assay [2].

B2: BK-D-10 (bispecific antibody, human IgG1, kappa)
heavy: QVQLVQSGAEVKKPGASVKVSCKASGYTFTNYYMKWVKQAPGQSLEWIGDLNPNNGDTFYNQKFKGKATLTVDKSASTAYMELNSLRSEDTAVYYCARTGRYEENAMDYWGQGTLVTVSSASTKGPSVFPLAPSSKSTSGGTAALGCLVKDYFPEPVTVSWNSGALTSGVHTFPAVLQSSGLYSLSSVVTVPSSSLGTQTYICNVNHKPSNTKVDKRVEPKSCDKTHTCPPCPAPEFEGGPSVFLFPPKPKDTLMISRTPEVTCVVVDVSHEDPEVKFNWYVDGVEVHNAKTKPREEQYNSTYRVVSVLTVLHQDWLNGKEYKCKVSNKALPASIEKTISKAKGQPREPQVYTLPPSREEMTKNQVSLTCLVKGFYPSDIAVEWESNGQPENNYKTTPPVLDSDGSFFLYSKLTVDKSRWQQGNVFSCSVMHEALHNHYTQKSLSLSPGKGGGGSGGGGSGGGGSQAVVTQEPSLTVSPGGTVTLTCRSSTGAVTTSNYANWVQQKPGQAPRGLIGGTNKRAPWTPARFSGSLLGGKAALTLSGAQPEDEAEYYCALWYSNLWVFGGGTKLTVLGGGGSGGGGSGGGGSEVQLVESGGGLVQPGGSLRLSCAASGFTFNTYAMNWVRQAPGKGLEWVARIRSKYNNYATYYADSVKDRFTISRDDSKNSLYLQMNSLKTEDTAVYYCVRHGNFGNSYVSWFAYWGQGTLVTVSA
light: DLVMTQSPASLAVSPGQRATITCRASESVDSYGKSFMHWYQLKPGQPPKLLIYRASNLESGVPARFSGSGSRTDFTLTINPVEANDTANYYCQQNNEDPWTFGQGTKLEIKRTVAAPSVFIFPPSDEQLKSGTASVVCLLNNFYPREAKVQWKVDNALQSGNSQESVTEQDSKDSTYSLSSTLTLSKADYEKHKVYACEVTHQGLSSPVTKSFNRGEC
Regarding B2, the EC50 was 143 nM in assay [1] and 0.248 nM in assay [2].
